Reference: patent US20230235058A1 (OXFORD UNIVERSITY INNOVATION, published 2023)

T1: full length cynomolgus BTLA expressed on Jurkat cells (cynomolgus monkey, UniProt Q7Z6A9 31-289 (human entry))
T1 construct: also called cynomolgus BTLA expressing cells
T1 chain: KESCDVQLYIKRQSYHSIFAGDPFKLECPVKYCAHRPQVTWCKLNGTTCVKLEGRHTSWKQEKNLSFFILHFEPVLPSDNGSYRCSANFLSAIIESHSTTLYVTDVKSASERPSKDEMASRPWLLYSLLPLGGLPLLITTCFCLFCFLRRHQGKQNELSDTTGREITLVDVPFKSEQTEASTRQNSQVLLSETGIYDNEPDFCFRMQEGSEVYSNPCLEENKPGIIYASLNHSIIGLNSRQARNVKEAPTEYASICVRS

T2: soluble cynomolgus macaque BTLA extracellular domain (BTLA K31-R151) (cynomolgus macaque)
T2 construct: also called cynomolgus BTLA; cyno BTLA
T2 chain: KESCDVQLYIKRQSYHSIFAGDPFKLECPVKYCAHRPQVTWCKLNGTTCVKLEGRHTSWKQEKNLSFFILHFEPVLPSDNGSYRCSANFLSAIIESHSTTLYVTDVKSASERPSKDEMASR


Key:
[1] = molecular target: T3, full length human BTLA expressed on cells (human, UniProt Q7Z6A9 31-289); assay: flow cytometry, BTLA Jurkat cells
T3 construct: also called human BTLA expressing cells; human BTLA transfected Jurkat T cell line
Method: (§1) A lentiviral transfection system was used to express full length human or cynomolgus BTLA in a Jurkat T cell line. 1×10⁵ cells per well were plated in 96 well U-bottom plates. […] Secondary antibody was incubated for 30 minutes on ice, then cells were washed and resuspended in FACS buffer for analysis on a flow cytometer. The geometric mean fluorescent intensity of secondary antibody was plotted for each concentration and the EC50 for receptor binding calculated by non-linear curve fitting using GraphPad Prism software.
(§2) The ability of the BTLA agonist antibodies of the present invention to bind to human or cynomolgus BTLA expressed on the cell surface was assessed by flow cytometry. A lentiviral transfection system was used to express full length human or cynomolgus BTLA in a Jurkat T cell line. 1×10⁵ cells per well were plated in 96 well U-bottom plates.

[2] = molecular target: T1, full length cynomolgus BTLA expressed …; assay: flow cytometry, BTLA Jurkat cells
Method: as §1, §2

[3] = molecular target: T2, soluble cynomolgus macaque BTLA …; assay: SPR Biacore 8K 37C, single cycle kinetics;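 also: antibody captured on sensor chip, soluble BTLA extracellular domain flowed over at several concentrations in HBS-EP pH 7.4, rates fitted after subtracting isotype-control reference channel and blank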
Method: (§3) The binding affinity and kinetics of humanised BTLA agonist antibodies to human or cynomolgus BTLA were determined by surface plasmon resonance using the Biacore 8K (GE Healthcare). […] Anti-BTLA antibody was then captured onto the biosensor surface and a negative control antibody (human IgG1k isotype control; Sino Biological cat #HG1K) captured in the reference channel. Various concentrations of monomeric soluble human BTLA extracellular domain (BTLA^K31-R151, produced recombinantly in house) or soluble cynomolgus macaque BTLA extracellular domain (BTLA^K31-R151, produced recombinantly in house) were then injected over the immobilized antibodies in the buffer HBS-EP (GE Healthcare, cat #BR100669), pH 7.4 (HBS-P) at 37° C., in a single cycle kinetics analysis.

[4] = molecular target: T4, monomeric soluble human BTLA extracellular domain (BTLA K31-R151) (human, UniProt Q7Z6A9 31-151); assay: SPR Biacore 8K 37C, single cycle kinetics;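 also: antibody captured on sensor chip, soluble BTLA extracellular domain flowed over at several concentrations in HBS-EP pH 7.4, rates fitted after subtracting isotype-control reference channel and blank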
T4 construct: also called hBTLA; monomeric BTLA
Method: as §3

[5] = molecular target: T3, full length human BTLA expressed on …; assay: cell-based or functional assay

EC50 [1] [nM] | EC50 [2] [nM] | Kd [3] [nM] | koff [3] [s⁻¹] | kon [3] [M⁻¹ s⁻¹] | Kd [4] [nM] | koff [4] [s⁻¹] | kon [4] [M⁻¹ s⁻¹] | inhibition of NFkB signal, IC50 [5] [nM] | maximal inhibition of NFkB signal [5] [%] | Binder
0.177 | 15.6 | 1520 | 0.431 | 287000 | 141 | 0.122 | 865000 | 0.065 | 54 | Engineered humanised 3E8 (Variant B) (antibody, V domains shown) VH: QVQLVQSGAELKKPGASVKVSCKASGYTFTSYAIRWVRQATGQGLEWMGEIYPRSGNTYYAQKFQGRATLTADKSISTAYMELSSLRSEDTAVYFCARSGGASYTMDYWGQGTTVTVSS VL: ENVLTQSPATLSLSLGERATLSCSASSSVSSSYLHWYQQKPDQSPRPLIHRTSNLASGIPSRFSGSGSGTDYTLTISSLEAEDFAVYYCQQWSGYPFTFGSGTKLEIKR
0.062 | 0.148 | 15.4 | 0.00352 | 229000 | 1.25 | 0.00133 | 1.06e+06 | 0.028 | 47 | Engineered humanised 6.2 (Variant C) (antibody, V domains shown) VH: EVQLVESGGGLVKPGGSLRLSCAASGFTLSSYGMSWVRQAPGKGLEWVASIRSDGQTYYPDSVKGRFTISRDNAKNTLYLQMSSLRAEDTAVYYCTRGGYYGSSPYYWGQGTTVTVSS VL: DIVMTQSPLSLPVTPGEPASISCKSSQSLLYSSNQKNYLAWYQQKPGQSPKLLIYWASTRESGVPDRFSGSGSGTDFTLKISRVEAEDVGVYYCQQYYNYLTFGGGTKVEIKR
